The assay has as its target His-tagged recombinant Ebola virus glycoprotein (rGP) expressed in insect cells (Ebola virus (EBOV)) (UniProt Q05320). In words: ELISA. For orientation: ELISA stands for enzyme-linked immunosorbent assay.

Consider 3 substances from article PMC4619498.

Fab-KZ52: the GP binding affinity (absorbance normalized by the negative control) came to 16.6; the absorbance signal ratio between positive binding samples and blanks was 10.2; the ratio of GP-binding affinity to HA-RBD affinity (GP/HA) stood at 3.91.
Regarding scFv-13C6, the GP binding affinity (absorbance normalized by the negative control) (normalized units) was 11.1; the absorbance signal ratio between positive binding samples and blanks was 19.1; the ratio of GP-binding affinity to HA-RBD affinity (GP/HA) was 5.
For scFv-13F6, the GP binding affinity (absorbance normalized by the negative control) (normalized units) stood at 9.65; the absorbance signal ratio between positive binding samples and blanks stood at 13.9; the ratio of GP-binding affinity to HA-RBD affinity (GP/HA) turned out to be 4.48.
